Biological target: T1, GSDMD (Mus musculus, UniProt Q9D8T2)
T1 chain: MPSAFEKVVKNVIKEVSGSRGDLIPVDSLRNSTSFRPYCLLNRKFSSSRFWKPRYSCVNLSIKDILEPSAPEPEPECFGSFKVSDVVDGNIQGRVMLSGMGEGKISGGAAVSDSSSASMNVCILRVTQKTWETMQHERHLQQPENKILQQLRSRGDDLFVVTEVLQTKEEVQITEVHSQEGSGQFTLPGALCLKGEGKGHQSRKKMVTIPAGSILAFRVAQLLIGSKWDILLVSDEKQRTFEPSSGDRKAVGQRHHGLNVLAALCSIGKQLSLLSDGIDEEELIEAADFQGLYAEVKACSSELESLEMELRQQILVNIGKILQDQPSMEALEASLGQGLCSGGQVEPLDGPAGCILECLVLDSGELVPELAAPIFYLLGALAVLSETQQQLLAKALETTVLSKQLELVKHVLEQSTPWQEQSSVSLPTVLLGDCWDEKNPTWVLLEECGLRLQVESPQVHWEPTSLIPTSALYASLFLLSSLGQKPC
Assay: SPR

B1: CIRP (protein)
chain: MASDEGKLFVGGLSFDTNEQALEQVFSKYGQISEVVVVKDRETQRSRGFGFVTFENIDDAKDAMMAMNGKSVDGRQIRVDQAGKSSDNRSRGYRGGSAGGRGFFRGGRSRGRGFSRGGGDRGYGGGRFESRSGGYGGSRDYYASRSQGGSYGYRSSGGSYRDSYDSYATHNE
B1 showed a Kd of 487 nM.
